Results: US20240383964A1, “De Novo Designed alpha(5) beta(1) Integrin selective minibinders” (UNIVERSITY OF WASHINGTON, priority 2023, published 2024)

Experiments:
integrin avb6 = integrin avb6 (Homo sapiens, UniProt P06756+P18564); experiment: BLI cross specificity, integrin avb6; assay type: binding; conditions: 500 nM integrin (FIG. 2B legend: 500 nM or 1000 nM), integrin assay buffer
[1] = biological target: T1, α5β1 on K562 cells wild type (Homo sapiens, UniProt P05556+P08648); experiment: Cell surface titration of minibinder on wild type cells; assay type: cell-based; conditions: α5β1 the only RGD binding integrin expressed
T1 construct: endogenous in cells; host or cells: K562 wild type (printed 'A562')
Method: (§1) FIG. 2. (A) BLI binding affinity traces for minibinder or ^8RGD^10/GGG mutant against α5β1 in indicated buffers. Minibinder affinity to integrin α5β1 is dependent on metal ion presence and RGD motif. All affinity data was collected by Octet™ R8 and binding affinity was estimated by the Octet™ ForteBio software package. (B) Minibinder has no detectable affinity in presence of 500 nM or 1000 nM integrin αvβ1, αvβ3, αvβ6, αvβ8 and α8β1. (C) Cell surface titration of minibinder 4584_V5.3 and 00179_v4.1 against K562 cells wild type. […] Integrin α5 subunit and β1 subunit were stained with integrin α5 and active integrin β1 subunit specific antibody, respectively. (E) Quantification of (D). Quantification was counted as a percentage of mb-sheets that colocalized with staining of a5 and b1, a5 only, b1 only, or none; 30-35 sheets were counted in each biological repeat. […] Vascular stability was analyzed at 12-h timepoints. […] (G) Quantification of (F). The number of nodes, meshes, and tubes from images in (F) were quantified using an angiogenesis analyzer plug-in in ImageJ. Statistical significance of each were analyzed using One-way Anova Bonferroni's multiple comparison test. […] The wound area of T0 and T12 time points were quantified using imageJ and level of cell migration were calculated using this equation (AreaT0-T12)/AreaT0, all samples were normalized to PBS as fold change. […]

integrin avb1 = integrin avb1 (Homo sapiens, UniProt P05556+P06756); experiment: BLI cross specificity, integrin avb1; assay type: binding; conditions: 500 nM integrin (FIG. 2B legend: 500 nM or 1000 nM), integrin assay buffer
HUVECs [2] = experiment: Scratch-wound cell migration assay; assay type: cell-based, human; conditions: 20 nM, 12 hours, compared to PBS control
Method: FIG. 2. (A) BLI binding affinity traces for minibinder or ^8RGD^10/GGG mutant against α5β1 in indicated buffers. Minibinder affinity to integrin α5β1 is dependent on metal ion presence and RGD motif. All affinity data was collected by Octet™ R8 and binding affinity was estimated by the Octet™ ForteBio software package. (B) Minibinder has no detectable affinity in presence of 500 nM or 1000 nM integrin αvβ1, αvβ3, αvβ6, αvβ8 and α8β1. (C) Cell surface titration of minibinder 4584_V5.3 and 00179_v4.1 against K562 cells wild type. […] Integrin α5 subunit and β1 subunit were stained with integrin α5 and active integrin β1 subunit specific antibody, respectively. (E) Quantification of (D). Quantification was counted as a percentage of mb-sheets that colocalized with staining of a5 and b1, a5 only, b1 only, or none; 30-35 sheets were counted in each biological repeat. […] Minibinders were added to HUVEC cells at 0, 0.1, 1, 10, and 100 nM. Vascular stability was analyzed at 12-h timepoints. 20 images were taken in each well at random locations. The scale bar is 100 μm. (G) Quantification of (F). The number of nodes, meshes, and tubes from images in (F) were quantified using an angiogenesis analyzer plug-in in ImageJ. Statistical significance of each were analyzed using One-way Anova Bonferroni's multiple comparison test. […] The wound area of T0 and T12 time points were quantified using imageJ and level of cell migration were calculated using this equation (AreaT0-T12)/AreaT0, all samples were normalized to PBS as fold change.
The inhibitory effect of 20 nM soluble 00179_v4.1 on cell migration was assessed using the scratch-wound assay. HUVECs were seeded with either 00179_v4.1 or PBS (used as a […] control) for 12 hours before capturing images for analysis.

integrin avb3 = integrin avb3 (Homo sapiens, UniProt P05106+P06756); experiment: BLI cross specificity, integrin avb3; assay type: binding; conditions: 500 nM integrin (FIG. 2B legend: 500 nM or 1000 nM), integrin assay buffer
integrin avb8 = integrin avb8 (Homo sapiens, UniProt P06756+P26012); experiment: BLI cross specificity, integrin avb8; assay type: binding; conditions: 500 nM integrin (FIG. 2B legend: 500 nM or 1000 nM), integrin assay buffer
[3] = biological target: T2, active form of integrin α5β1 (Homo sapiens, UniProt P05556+P08648); experiment: Colocalization of minibinder conjugated to GFP-tagged protein sheets with integrin staining; assay type: cell-based; conditions: α5 and active β1 specific antibodies
T2 construct: endogenous in cells
Method: as §1

HUVECs [4] = experiment: Tube formation assay; assay type: cell-based, human
Method: as §1

integrin a8b1 = integrin a8b1 (Homo sapiens, UniProt P05556+P53708); experiment: BLI cross specificity, integrin a8b1; assay type: binding; conditions: 500 nM integrin (FIG. 2B legend: 500 nM or 1000 nM), integrin assay buffer
Sequence of integrin a8b1 (P53708 39-906 limits assumed): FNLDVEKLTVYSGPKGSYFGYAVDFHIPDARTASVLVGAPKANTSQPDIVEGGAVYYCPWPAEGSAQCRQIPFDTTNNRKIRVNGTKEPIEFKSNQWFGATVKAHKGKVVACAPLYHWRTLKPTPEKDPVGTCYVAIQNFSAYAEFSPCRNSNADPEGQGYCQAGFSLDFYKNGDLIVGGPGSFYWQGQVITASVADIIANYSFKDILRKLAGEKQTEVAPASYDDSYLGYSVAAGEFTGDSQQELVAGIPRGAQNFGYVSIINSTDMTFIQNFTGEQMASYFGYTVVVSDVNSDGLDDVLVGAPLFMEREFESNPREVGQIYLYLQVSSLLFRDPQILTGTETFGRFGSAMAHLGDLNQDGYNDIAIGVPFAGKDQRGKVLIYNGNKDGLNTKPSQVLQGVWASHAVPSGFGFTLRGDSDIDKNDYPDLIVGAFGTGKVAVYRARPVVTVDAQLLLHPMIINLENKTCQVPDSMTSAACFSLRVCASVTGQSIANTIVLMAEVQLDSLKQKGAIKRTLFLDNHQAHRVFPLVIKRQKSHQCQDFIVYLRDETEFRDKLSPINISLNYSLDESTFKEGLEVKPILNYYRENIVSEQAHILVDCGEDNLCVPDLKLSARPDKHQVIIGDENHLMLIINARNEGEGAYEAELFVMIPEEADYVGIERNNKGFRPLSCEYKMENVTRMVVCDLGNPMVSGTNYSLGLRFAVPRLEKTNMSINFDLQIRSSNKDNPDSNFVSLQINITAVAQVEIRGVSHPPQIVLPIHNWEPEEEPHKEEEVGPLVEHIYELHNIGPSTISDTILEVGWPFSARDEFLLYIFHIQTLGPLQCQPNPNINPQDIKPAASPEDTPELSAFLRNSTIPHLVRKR
Sequence of integrin a8b1 (P53708 907-1011 partner limits assumed): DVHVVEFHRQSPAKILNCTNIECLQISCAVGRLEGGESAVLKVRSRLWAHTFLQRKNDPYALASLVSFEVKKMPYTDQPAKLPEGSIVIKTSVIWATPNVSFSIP
Sequence of integrin a8b1 (P05556 21-728 limits assumed): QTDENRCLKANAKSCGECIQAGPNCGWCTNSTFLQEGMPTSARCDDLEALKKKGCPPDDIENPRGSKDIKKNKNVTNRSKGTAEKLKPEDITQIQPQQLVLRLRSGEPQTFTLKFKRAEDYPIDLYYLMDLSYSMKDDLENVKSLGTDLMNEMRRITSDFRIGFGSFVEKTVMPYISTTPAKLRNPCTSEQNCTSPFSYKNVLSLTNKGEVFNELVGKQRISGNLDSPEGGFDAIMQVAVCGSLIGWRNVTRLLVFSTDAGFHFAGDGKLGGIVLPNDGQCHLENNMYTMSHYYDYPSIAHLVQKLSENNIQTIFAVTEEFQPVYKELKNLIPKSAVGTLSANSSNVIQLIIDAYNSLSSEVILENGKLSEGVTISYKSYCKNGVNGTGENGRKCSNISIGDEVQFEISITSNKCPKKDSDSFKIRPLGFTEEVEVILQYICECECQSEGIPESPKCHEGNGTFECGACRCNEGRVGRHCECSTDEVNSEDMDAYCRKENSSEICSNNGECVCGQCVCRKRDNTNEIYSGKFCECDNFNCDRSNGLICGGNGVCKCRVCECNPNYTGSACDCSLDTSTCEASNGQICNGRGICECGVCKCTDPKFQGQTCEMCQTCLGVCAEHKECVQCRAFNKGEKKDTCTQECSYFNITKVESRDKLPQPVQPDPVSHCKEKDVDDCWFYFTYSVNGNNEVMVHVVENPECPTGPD

T1 sequence (P08648 42-894 limits assumed): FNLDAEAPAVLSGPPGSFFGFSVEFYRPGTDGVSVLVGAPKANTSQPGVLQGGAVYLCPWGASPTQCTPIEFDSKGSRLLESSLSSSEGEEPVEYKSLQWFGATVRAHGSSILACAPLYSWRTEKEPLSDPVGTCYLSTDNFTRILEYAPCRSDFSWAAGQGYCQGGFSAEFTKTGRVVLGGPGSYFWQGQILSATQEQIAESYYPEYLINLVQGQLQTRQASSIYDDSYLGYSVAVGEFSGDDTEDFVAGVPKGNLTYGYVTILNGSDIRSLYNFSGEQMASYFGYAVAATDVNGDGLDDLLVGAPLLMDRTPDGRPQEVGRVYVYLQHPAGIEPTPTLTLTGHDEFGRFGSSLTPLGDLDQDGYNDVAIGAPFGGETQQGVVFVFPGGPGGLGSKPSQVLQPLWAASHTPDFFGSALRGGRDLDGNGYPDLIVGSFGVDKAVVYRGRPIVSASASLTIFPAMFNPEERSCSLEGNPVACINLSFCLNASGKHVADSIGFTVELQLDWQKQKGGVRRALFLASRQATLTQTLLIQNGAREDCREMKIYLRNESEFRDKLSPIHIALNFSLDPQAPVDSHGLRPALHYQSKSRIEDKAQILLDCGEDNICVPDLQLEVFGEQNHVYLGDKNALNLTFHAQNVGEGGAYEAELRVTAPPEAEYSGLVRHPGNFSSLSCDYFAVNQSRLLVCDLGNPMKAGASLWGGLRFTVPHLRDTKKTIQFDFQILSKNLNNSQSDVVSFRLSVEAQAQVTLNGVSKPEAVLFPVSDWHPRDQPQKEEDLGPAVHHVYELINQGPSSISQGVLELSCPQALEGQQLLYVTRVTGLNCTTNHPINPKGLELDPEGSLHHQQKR
T1 sequence (P08648 895-1049 partner limits assumed): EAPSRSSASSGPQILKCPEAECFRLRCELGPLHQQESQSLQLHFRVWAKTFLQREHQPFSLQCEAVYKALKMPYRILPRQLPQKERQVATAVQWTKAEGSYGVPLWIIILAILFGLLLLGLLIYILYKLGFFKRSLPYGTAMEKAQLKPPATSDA
T1 sequence (P05556 21-798): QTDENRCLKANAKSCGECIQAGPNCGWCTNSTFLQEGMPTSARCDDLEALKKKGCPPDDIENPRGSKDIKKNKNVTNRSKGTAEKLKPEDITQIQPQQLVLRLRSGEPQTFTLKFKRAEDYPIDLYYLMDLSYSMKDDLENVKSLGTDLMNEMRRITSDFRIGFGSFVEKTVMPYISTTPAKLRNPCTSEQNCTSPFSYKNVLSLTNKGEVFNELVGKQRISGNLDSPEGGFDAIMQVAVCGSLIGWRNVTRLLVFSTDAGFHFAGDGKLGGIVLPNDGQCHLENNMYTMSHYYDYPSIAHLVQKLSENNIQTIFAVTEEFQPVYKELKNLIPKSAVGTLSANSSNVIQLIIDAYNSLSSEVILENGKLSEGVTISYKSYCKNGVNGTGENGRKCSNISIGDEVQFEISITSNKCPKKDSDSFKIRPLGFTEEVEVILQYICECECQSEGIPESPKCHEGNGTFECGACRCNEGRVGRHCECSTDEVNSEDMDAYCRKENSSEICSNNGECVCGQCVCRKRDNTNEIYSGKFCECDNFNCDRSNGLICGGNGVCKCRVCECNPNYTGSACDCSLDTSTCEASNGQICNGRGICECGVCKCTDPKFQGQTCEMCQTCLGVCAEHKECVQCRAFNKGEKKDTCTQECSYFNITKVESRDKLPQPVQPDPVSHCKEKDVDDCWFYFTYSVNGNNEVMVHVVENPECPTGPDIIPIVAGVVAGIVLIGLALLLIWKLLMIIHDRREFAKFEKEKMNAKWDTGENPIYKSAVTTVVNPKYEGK
T2 sequence (P08648 42-894 limits assumed): as the sequence (P08648 42-894 limits assumed) above
T2 sequence (P08648 895-1049 partner limits assumed): as the sequence (P08648 895-1049 partner limits assumed) above
T2 sequence (P05556 21-798): as the sequence (P05556 21-798) above
Sequence of integrin avb1 (P06756 31-889 limits assumed): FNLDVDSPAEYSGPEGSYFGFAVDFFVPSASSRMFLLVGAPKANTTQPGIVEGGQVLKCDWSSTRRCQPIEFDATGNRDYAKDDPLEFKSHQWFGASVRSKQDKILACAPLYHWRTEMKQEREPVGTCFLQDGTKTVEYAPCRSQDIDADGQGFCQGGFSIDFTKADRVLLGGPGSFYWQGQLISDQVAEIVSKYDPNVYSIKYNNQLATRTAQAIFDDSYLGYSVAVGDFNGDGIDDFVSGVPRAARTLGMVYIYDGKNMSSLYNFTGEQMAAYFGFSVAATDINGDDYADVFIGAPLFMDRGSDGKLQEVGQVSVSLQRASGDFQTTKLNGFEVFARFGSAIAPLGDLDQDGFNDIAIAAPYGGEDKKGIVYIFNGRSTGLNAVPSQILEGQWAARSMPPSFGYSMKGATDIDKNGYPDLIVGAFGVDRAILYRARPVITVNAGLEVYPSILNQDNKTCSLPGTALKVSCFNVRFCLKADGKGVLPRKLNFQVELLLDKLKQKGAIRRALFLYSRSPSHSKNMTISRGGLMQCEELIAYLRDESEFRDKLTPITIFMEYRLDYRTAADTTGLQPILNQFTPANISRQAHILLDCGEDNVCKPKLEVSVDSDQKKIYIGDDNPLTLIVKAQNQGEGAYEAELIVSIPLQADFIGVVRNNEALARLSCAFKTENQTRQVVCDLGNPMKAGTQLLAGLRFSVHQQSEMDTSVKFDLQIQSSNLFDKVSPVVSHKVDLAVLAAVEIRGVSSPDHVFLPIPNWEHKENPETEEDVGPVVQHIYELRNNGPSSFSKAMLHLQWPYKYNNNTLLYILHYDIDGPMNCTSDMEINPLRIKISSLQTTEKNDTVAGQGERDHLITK
Sequence of integrin avb1 (P06756 891-992 partner limits assumed): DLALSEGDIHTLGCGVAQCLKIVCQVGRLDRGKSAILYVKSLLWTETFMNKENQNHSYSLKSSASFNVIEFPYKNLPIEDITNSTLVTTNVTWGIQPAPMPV
Sequence of integrin avb1 (P05556 21-728 limits assumed): as the sequence (P05556 21-728 limits assumed) above

B1: 00179_v4.1: highest affinity α5β1 minibinder, sequence SELIIHGRGDFPSSELERLRERFERLGIKVRVDHKVLTLIGISEEEAERLARELRKRGIWVEIRK (protein)
chain: SELIIHGRGDFPSSELERLRERFERLGIKVRVDHKVLTLIGISEEEAERLARELRKRGIWVEIRK
Integrin avb6
  binding to integrin avb6: No detectable binding
[1]
  binding affinity to α5β1 on the cell surface: Nanomolar binding ability
Integrin avb1
  binding to integrin avb1: No detectable binding
HUVECs [2]
  cell migration: significant reduction in cell migration
Integrin avb3
  binding to integrin avb3: No detectable binding
Integrin avb8
  binding to integrin avb8: No detectable binding
[3]
  localization of minibinder sheet with integrin α5 and active β1 staining: colocalized with active form of integrin α5β1
HUVECs [4]; HUVEC cells, 0, 0.1, 1, 10 and 100 nM, 12-h timepoint
  vascular stability: decrease in vascular stability
HUVECs [4]; HUVECs, 10 nM and 100 nM, 12 hours, compared to PBS control
  tube formation: significantly attenuated
Integrin a8b1
  binding to integrin a8b1: No detectable binding
